Key:
[1] = target: T1, recombinant human APRIL (R&D cat: 5860-AP-010/CF) (human, UniProt O75888 105-250, limits assumed); experiment: cell-based or functional assay
T1 sequence (looked up): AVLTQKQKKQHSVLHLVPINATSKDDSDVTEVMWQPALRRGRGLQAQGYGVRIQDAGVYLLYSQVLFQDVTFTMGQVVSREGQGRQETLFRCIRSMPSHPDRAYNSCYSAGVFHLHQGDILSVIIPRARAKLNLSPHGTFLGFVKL

[2] = target: recombinant human BAFF (R&D cat: 7537-BF-025/CF) (human, UniProt Q9Y275 134-285); experiment: cell-based or functional assay
[3] = target: BAFF (PeproTech, Cat: 310-13) (UniProt Q9Y275 134-285); experiment: ELISA, BAFF coated at 1 ug/mL, anti-human Fc-HRP, OD450
Sequence of BAFF (PeproTech, Cat: 310-13) (Q9Y275 134-285 limits assumed): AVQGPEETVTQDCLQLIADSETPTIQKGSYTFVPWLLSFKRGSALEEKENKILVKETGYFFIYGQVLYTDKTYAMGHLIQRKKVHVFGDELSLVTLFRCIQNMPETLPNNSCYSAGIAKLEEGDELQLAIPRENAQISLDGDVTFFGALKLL
Method: The capabilities of fusion proteins B606401, B637302, B746201, and B805201 to bind to BAFF and APRIL were assessed by ELISA as follows:
BAFF (PeproTech, Cat: 310-13) or ARPIL (Acro Biosystems, Cat: APL-H52D1) was diluted to 1 μg/mL with PBS, and a 96-well plate was coated with the dilution overnight at 4° C. The plate was washed with PBST and blocked with Blocking Buffer (PBST containing 1% BSA) at 37° C. for 1 h. The plate was tapped. The test antibodies were diluted with Blocking Buffer. Incubation was performed at 37° C. for 1.5 h. The plate was washed with PBST. An HRP-mouse anti-human Fc antibody (GenScript, Cat: A01854-200) was diluted with Blocking Buffer. Incubation was performed at 37° C. for 40 min. The plate was washed with PBST. 100 μL of TMB substrate solution (Biopanda, Cat: TMB-S-003) was added, and color development was performed at 37° C. for 3 min. 100 μL of ELISA stop solution (Solarbio, Cat: C1058) was added. OD450 was measured.

Sequence of recombinant human BAFF (R&D cat: 7537-BF-025/CF) (Q9Y275 134-285 limits assumed): as above

B1: Telitacicept (RCT-18) (Fc fusion)
chain: SRVDQEERFPQGLWTGVAMRSCPEEQYWDPLLGTCMSCKTICNHQSQRTCAAFCRSLSCRKEQGKFYDHLLRDCISCASICGQHPKQCAYFCENKLRSPVNLPPELDKTHTCPPCPAPEAEGAPSVFLFPPKPKDTLMISRTPEVTCVVVDVSHEDPEVKFNWYVDGVEVHNAKTKPREEQYNSTYRVVSVLTVLHQDWLNGKEYKCKVSNKALPSSIEKTISKAKGQPREPQVYTLPPSRDELTKNQVSLTCLVKGFYPSDIAVEWESNGQPENNYKTTPPVLDSDGSFFLYSKLTVDKSRWQQGNVFSCSVMHEALHNHYTQKSLSLSPGK
notes: Positive control TACI-Fc; also called RC18
In the case of B1, the “CD27+ CD38+ plasma cell count, mean value, BAFF + APRIL-induced (both ligands together), drug at 10 nM (IgG1: 2687)” value [1] is reported as 2450 cells, the “CD27+ CD38+ plasma cell count, mean value, BAFF + APRIL-induced (both ligands together), drug at 100 nM (IgG1: 2496)” value [1] is reported as 510 cells and the “CD27+ CD38+ plasma cell count, mean value, BAFF + APRIL-induced (both ligands together), drug at 1000 nM (IgG1: 2279)” value [1] is reported as 230 cells. For the same binder, the “CD27+ CD38+ plasma cell count, mean value, BAFF + APRIL-induced (both ligands together), drug at 100 nM (IgG1: 2496)” value [2] was 510 cells, the “CD27+ CD38+ plasma cell count, mean value, BAFF + APRIL-induced (both ligands together), drug at 1000 nM (IgG1: 2279)” value [2] was 230 cells and the EC50 [3] was 0.256 nM.
